Reference: article PMC6929169, “Functional Characteristics of Caffeoyl Shikimate Esterase in Larix Kaempferi and Monolignol Biosynthesis in Gymnosperms” (International Journal of Molecular Sciences, 2019)

Substrate: O=C(/C=C/c1ccc(O)c(O)c1)O[C@@H]1CC(C(=O)O)=C[C@@H](O)[C@H]1O
Assay: HPLC-MS of caffeic acid formed, Michaelis-Menten fit
Format: biochemical, Larix kaempferi
Conditions: 100 mM NaPO4 buffer pH 6.0, 500 μM dithiothreitol, 0–320 μM substrate, 1 μg enzyme in 100 μL, temperature of kinetics not given

B1: LkCSE (Larix kaempferi) (protein)
chain: MSAVEKPAAPPNFWGEMPEEEYYASQGVKNHQERFETPHGILFTQSWIPIEGPVKGIVCMTHGYGSDTGWLFQKISITYAQWGYAVFGADLLGHGRSDGLRCYMGDMEKIAAASLFFFKAMRDSEPYKGLPAFLFGESMGGATTLLMYFQDPDGWSGLIFSAPLFVMPEPMKPSWWRLTAYGLLFGLADTWAVMPDNKMVKKAIKDPEKLKIIASNPRRYTGPPRVGTMRELCRICAFFQENFEKVTIPFLTCHGTSDEVTAPQSSTDLYEKAKSEDKTLKLYDDMYHSLIQGEPDENANQVLADMREWLDARASRTSS
Protein B1 has a Km of 82.08 µM.
